Patent US6710165B2, “IgE-dependent histamine-releasing factor-binding peptides” (priority 2000, dated 2004)

Legend:
[1] = tested on: PC12 cells; assay: [3H]-dopamine release by HRF; assay type: cell-based
Protocol: It was examined whether or not HRF functions as the inhibitor of (Na,K)ATPase enzyme to stimulate neurotransmitters release. For this purpose, HRF was added to the culture solution of PC12 cells (Abu-Raya, et al., 1999) and then, changes in [^3H]-labeled dopamine release induced in basal and K^+-depolarized state by addition of HRF were measured. PC12 cells from passage numbers 5 to 15 were cultured in RPMI-1640 medium containing 10% horse serum, 5% fetal bovine serum, penicillin (100 U/ml) and streptomycin (100 μg/ml) with the supply of 5% CO2 at 37° C.
To measure [^3H]-dopamine release, one day prior to the experiment, the cells ([…]) were cultured in 12-well dish coated with poly-L-lysine (10 μg/ml). The fresh medium containing [^3H]-dopamine (0.5 μCi/ml) was loaded thereto and then, the cells were further cultured at 37° C. for 3 hours. They were washed 2 or 3 times with 1 ml of PBS(1×) per well. To Krebs Ringer (KR) buffer (125 mM NaCl, 5 mM KCl, 2 mM CaCl2, 10 mM HEPES, 1.2 mM MgSO4, 1.2 mM KH2PO4, 6 mM glucose, 5 mM NaHCO3), ascorbic acid (0.2 mg/ml), pargyline (0.6 mg/ml) and despiramine (2 μM) were added. Each 1 ml of the mixture was loaded with HRF and the reaction was proceeded at 37° C. for 20 minutes. The release in the depolarization state was measured in KR buffer containing 50 mM KCl, and in Ca^2+-free medium, was measured in KR buffer prepared by removal of CaCl2 with the addition of 0.5 mM EGTA.
Upon completion of the reaction, the radioactivity of the released dopamine was measured after centrifuging the culture solution at 4° C., 1,000×g for 10 minutes. The cells were solubilized with 0.5 N NaOH and then, the radioactivity within the tissue was measured. The release rate (%) of dopamine was calculated by [radioactivity of the supernatant/(radioactivity of the supernatant+radioactivity within the tissue)×100].
As compared with the increase in basal release, the increase in K^+-stimulated release was shifted to left, but the extent thereof was relatively small.

[2] = tested on: RBL-2H3 cells; assay: Intracellular Ca2+ concentration (Fluo-3-AM); assay type: cell-based
Protocol: RBL-2H3 cells were cultivated according to the same procedure as in Example 6 and then, washed with Krebs-Ringer buffer (KRH, 125 mM NaCl, 1.2 mM KH2PO4, 1.2 mM MgSO4, 6 mM glucose, 2 mM CaCl2, 25 mM Hepes, pH 7.4). Subsequently, they were incubated with 2 μM Fluo-3-AM (Molecular Probes, Eugene, Oreg.) and KRH buffer containing 0.2% BSA for 30 minutes and then, the culture was corrected with DMEM complete medium for 10˜30 minutes. Subsequently, the cells were washed with KRH buffer and sensitized according to the same procedure as in Example 6. After the sensitization, the cells were treated with HRF, anti-IgE (Serotec) and each inhibitor together with histamine releasing buffer (100 mM NaCl, 0.4 mM MgCl2, 5 mM KCl, 5.6 mM glucose, 0.1% BSA, 25 mM Hepes, pH 7.4) in the presence or absence of Ca^2+. The fluorescence of fluo-3AM was measured at 488/515 nm using laser scanning confocal microscope.

[3] = tested on: (Na,K)ATPase large cytoplasmic loop (CD3); assay: Yeast 2-hybrid analysis of HRF binding to (Na,K)ATPase large cytoplasmic loop; set-up: species or system rat; conditions: CD3 of (Na,K)ATPase α1 and α2 subunits as bait
Source text: The total cytoplasmic RNA was extracted from rat skeletal muscle and then, cDNA library for yeast 2-hybrid analysis was constructed by using pJG4-5 vector. CD3 region of (Na,K)ATPase α2 subunit was inserted to LexA DNA binding domain (pEG202 vector) and the inserts were used as bait for screening. Positive clones activating reporter gene were selected and sequence analyzed by sequencing, restriction mapping and BLAST search. Among those clones, one clone had the completely identical sequence with HRF.
CD3 regions of (Na,K)ATPase α1 and 2 subunits were inserted to pEG202 vector and then, the interaction by isoforms was examined. Yeast cells containing LexAop-LEU2 and LexAop-LacZ reporter genes (EGY48/pSH18-34) were transformed with all the constructs as prepared above and then, grown in a selective medium plate.

[4] = tested on: PC12 cells; assay: Inhibition of HRF-stimulated dopamine release by HRF-binding peptide; assay type: cell-based; conditions: 15 μg/ml of HRF
Protocol: In order to confirm whether the peptides blocking histamine release by HRF also block neurotransmitters release in nerve cells, the peptide of SEQ ID No. 14 (p2) was tested for its effects on dopamine release stimulated by HRF according to the substantially same procedure as in Example 16.

[5] = tested on: (Na,K)ATPase large cytoplasmic loop; assay: Coimmunoprecipitation in yeast cells; assay type: binding, rat
Protocol: In Glucosyl Ura-His-Trp- and galactosyl Ura-His-Trp-media, yeast cells transformed with the constructs prepared in Example 1 were grown, and the cells were harvested by centrifugation at 3,000×g for 5 minutes. The harvested cells were resuspended in yeast lysis buffer (YLB: 50 mM Tris pH 8.0, 5 mM MgCl2, 150 mM NaCl, 50 mM NaF, 2 mM ZnCl2, protease inhibitor cocktail) and subsequently, the suspension was added to glass beads and vortexed. Thereto was added RIPA buffer (10 mM Tris pH 8.0, 100 mM NaCl, 1 mM EDTA, 1% NP4O, 0.5% sodium deoxycholate, 0.1% SDS) and then, the whole mixture was centrifuged at 10,000×g, 4° C. for 30 minutes.
To the cell extracts as prepared above, IgG sorb (The Enzyme Center, Inc.) was added and then, the mixture was incubated at 4° C. for 30 minutes and centrifuged at 10,000×g for 5 minutes. Thereto was added affinity-purified anti-HA 12CA5 monoclonal antibodies and then, the resulting mixture was incubated for 3 hours or overnight at 4° C. 50% protein A agarose solution (Roche, USA) was added to the above immunocomplex and the whole mixture was incubated at 4° C. for 4 hours. After centrifugation for 5 seconds, the obtained pellets were washed with RIPA buffer and washing buffer (1 M NaCl, 10 mM Tris pH 8.0, 0.1% NP4O), respectively. The pellets were resuspended in 2×SDS sample buffer and then, the suspension was loaded onto SDS-PAGE gel. […]

B1: HRF: recombinant full-length rat HRF overexpressed in E. coli; protein consisting of 172 amino acids (protein)
chain: MIIYRDLISHDELFSDIYKIREIADGLCLEVEGKMVSRTEGAIDDSLIGGNASAEGPEGEGTESTVVTGVDIVMNHHLQETSFTKEAYKKYIKDYMKSLKGKLEEQKPERVKPFMTGAAEQIKHILANFNNYQFFIGENMNPDGMVALLDYREDGVTPFMIFFKDGLEMEKC
modifications: left off: small tags and cut ends
notes: recombinant full-length rat HRF overexpressed in E. coli; protein consisting of 172 amino acids
[1]
  HRF concentration at which dopamine release was steeply increased and the cells detached and reached to death: ≥ 30 µg
[1]; 50 mM KCl
  K+-stimulated dopamine release in depolarization: dose-dependently increased K^+-stimulated dopamine release
[1]; basal state
  basal release of dopamine: dose-dependently increased the basal release of dopamine
[1]; basal, HRF 10 μg
  dopamine release at HRF 10 μg: increased to the extent similar to the K^+-stimulated release in depolarization
[2]
  effect on intracellular Ca2+ concentration: intracellular Ca^2+ concentration was increased
[3]
  HRF binding to (Na,K)ATPase CD3 in yeast 2-hybrid: HRF receptor corresponds to large cytoplasmic loop (CD3) of (Na,K)ATPase
[4]
  increase of dopamine release: about 110%
[5]
  interaction with (Na,K)ATPase large cytoplasmic loop, coimmunoprecipitation: interaction between HRF and (Na,K)ATPase large cytoplasmic loop could be confirmed
